Target: T1, MAL-Myc-tagged Cdc18 wild type (bacterial recombinant) (S. pombe, UniProt P41411 1-577)
T1 sequence (looked up): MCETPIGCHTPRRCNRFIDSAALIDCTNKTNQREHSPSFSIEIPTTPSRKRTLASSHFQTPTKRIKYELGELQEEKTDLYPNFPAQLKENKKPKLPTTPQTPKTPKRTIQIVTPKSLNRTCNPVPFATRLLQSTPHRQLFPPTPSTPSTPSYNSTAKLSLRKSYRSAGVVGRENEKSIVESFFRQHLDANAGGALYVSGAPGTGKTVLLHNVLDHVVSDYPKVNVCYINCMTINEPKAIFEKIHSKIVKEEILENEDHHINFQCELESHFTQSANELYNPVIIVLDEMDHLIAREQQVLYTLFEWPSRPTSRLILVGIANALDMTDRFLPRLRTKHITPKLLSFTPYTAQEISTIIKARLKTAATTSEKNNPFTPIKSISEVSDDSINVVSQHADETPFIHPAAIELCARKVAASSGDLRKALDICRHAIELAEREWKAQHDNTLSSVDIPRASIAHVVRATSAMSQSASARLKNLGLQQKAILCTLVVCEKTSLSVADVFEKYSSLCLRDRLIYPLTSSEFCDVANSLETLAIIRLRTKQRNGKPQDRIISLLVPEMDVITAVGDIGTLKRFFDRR
Experiment: pull-down

B1: 6his-FLAG-Swi6 wild type (bacterial recombinant) (natural protein, S. pombe, UniProt P40381 1-328, looked up)
chain: MKKGGVRSYRRSSTSKRSVIDDDSEPELPSMTKEAIASHKADSGSSDNEVESDHESKSSSKKLKENAKEEEGGEEEEEDEYVVEKVLKHRMARKGGGYEYLLKWEGYDDPSDNTWSSEADCSGCKQLIEAYWNEHGGRPEPSKRKRTARPKKPEAKEPSPKSRKTDEDKHDKDSNEKIEDVNEKTIKFADKSQEEFNENGPPSGQPNGHIESDNESKSPSQKESNESEDIQIAETPSNVTPKKKPSPEVPKLPDNRELTVKQVENYDSWEDLVSSIDTIERKDDGTLEIYLTWKNGAISHHPSTITNKKCPQKMLQFYESHLTFRENE
**Q.** Does B1 bind?
**A.** binds
